Source: CN115925884A

Target: EBV gB重组蛋白 (recombinant EB virus gB protein with C-terminal 6xHis tag) (EB病毒 (Epstein-Barr virus)) (UniProt P0C762)
Assay: BLI, biotinylated gB on SA biosensor, control antibody in solution

Kd: 302 pM
Substance: 对照抗体AMMO5 (anti-EBV gB recombinant antibody, clone AMMO5)
